Here are results for 1 substance from patent US20200246419A1.

For this assay, the target named is CD36 (human) (UniProt P16671). As to the kind of experiment: cell-based or functional assay.

A value given as a limit tells only on which side of the number the result lay.

CD36 (human), sequence (P16671 2-472): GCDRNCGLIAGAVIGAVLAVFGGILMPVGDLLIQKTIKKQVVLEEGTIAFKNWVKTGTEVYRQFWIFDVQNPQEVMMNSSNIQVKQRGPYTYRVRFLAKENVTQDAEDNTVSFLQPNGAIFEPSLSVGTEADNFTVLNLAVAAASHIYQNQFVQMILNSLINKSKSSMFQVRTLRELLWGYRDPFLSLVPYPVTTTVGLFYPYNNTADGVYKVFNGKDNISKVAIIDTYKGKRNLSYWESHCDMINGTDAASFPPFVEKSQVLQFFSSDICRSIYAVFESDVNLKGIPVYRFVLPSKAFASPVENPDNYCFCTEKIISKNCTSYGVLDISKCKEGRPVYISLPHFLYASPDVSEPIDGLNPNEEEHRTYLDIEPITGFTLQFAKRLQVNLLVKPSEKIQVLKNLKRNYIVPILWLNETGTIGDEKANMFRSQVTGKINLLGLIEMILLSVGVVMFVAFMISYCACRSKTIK

On to “recombinant human Tsp-1 (from UniProt P07996 19-1170) (ligand)”, for which the total cell number (Wst-1 assay) of patient-derived ovarian cancer cell lines treated with rhTsp-1 for up to 72 hours was less than 50%.
